Data reported in paper PMC11470125.

Target: T1, LbuCas13a (Leptotrichia buwadei? (printed only as …, UniProt C7NBY4 1-1159))
T1 sequence: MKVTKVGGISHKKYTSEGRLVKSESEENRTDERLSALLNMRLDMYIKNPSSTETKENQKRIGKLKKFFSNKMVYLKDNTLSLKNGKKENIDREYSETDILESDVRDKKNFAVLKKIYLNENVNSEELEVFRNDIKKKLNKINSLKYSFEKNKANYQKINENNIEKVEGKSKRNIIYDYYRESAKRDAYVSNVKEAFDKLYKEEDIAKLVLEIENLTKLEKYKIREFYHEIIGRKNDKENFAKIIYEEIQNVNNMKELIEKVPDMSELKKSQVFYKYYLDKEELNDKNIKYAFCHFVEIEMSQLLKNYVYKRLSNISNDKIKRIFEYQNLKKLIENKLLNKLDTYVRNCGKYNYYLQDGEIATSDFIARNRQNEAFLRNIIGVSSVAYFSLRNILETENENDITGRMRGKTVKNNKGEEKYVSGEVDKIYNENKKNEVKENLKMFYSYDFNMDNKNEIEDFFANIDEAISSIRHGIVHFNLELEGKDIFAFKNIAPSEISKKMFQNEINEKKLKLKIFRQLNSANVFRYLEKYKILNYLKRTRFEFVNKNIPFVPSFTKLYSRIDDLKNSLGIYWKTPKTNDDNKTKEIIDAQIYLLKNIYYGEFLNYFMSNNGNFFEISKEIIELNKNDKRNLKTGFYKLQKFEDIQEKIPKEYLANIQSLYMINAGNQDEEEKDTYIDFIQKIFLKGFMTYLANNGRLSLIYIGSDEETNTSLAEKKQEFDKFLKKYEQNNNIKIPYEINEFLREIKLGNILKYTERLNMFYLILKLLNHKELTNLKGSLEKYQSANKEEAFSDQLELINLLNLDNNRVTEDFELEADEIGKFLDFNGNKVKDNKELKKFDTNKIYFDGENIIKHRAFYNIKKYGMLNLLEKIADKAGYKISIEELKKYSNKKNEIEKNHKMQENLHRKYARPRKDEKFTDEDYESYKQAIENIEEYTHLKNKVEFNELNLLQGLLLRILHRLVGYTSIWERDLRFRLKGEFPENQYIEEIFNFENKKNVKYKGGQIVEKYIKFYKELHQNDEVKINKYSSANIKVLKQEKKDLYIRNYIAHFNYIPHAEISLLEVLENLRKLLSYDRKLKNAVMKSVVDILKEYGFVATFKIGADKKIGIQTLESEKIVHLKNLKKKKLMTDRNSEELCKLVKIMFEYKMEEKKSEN
Assay: competition

B1: Cas13a crRNA with scrambled ssDNA, unlabelled competitor (mixed)
RNA: GAUUUAGACCACCCCAAAAAUGAAGGGGACUAAAACUGGGUGUUUGACAAGUUGUAUUGCAAUC
DNA: TCCACATCATCACTATTAACAAGGAACACTCCGAGGGT
B1: no binding.
